These results are taken from PMC4242096 (Nature structural & molecular biology, 2013).

The labels stand for the following.
B1: S. cerevisiae Cks (Cks1), wild type (natural protein, UniProt P20486 1-150, looked up)
chain: MYHHYHAFQGRKLTDQERARVLEFQDSIHYSPRYSDDNYEYRHVMLPKAMLKVIPSDYFNSEVGTLRILTEDEWRGLGITQSLGWEHYECHAPEPHILLFKRPLNYEAELRAATAAAQQQQQQQQQQQQQQQQHQTQSISNDMQVPPQIS

In assay [1] the target is phosSic1ΔC ΔC (Saccharomyces cerevisiae) (UniProt P38634). The note with it: cited from earlier work.
Assay [2] addresses phosSic1 N-terminus N-terminus (Saccharomyces cerevisiae) (UniProt P38634). Particulars: cited from earlier work.
The target of assay [3] is phosphorylated Cdc6^1–48 (UniProt P09119). In words: ITC. On the technique in general: Isothermal titration calorimetry measures the heat released or taken up as one component is titrated into another.
The target of assay [4] is T1, S. cerevisiae Cks (Cks1) (Saccharomyces cerevisiae, UniProt P20486).
T1 sequence (P20486 1-150): B1 chain
In words: Isothermal titration calorimetry. Type of assay: binding. The note with it: ITC; for Cks1 Kd (µM): phosphorylated Cdk substrate peptides, value ± error as printed.

For assay [5], the target named is T2, Cdc6^(1–48;T23A T39A S43A), only T7 phosphorylated (UniProt P09119 1-48, T23A | T39A | S43A, only T7 phosphorylated).
T2 chain (looked up): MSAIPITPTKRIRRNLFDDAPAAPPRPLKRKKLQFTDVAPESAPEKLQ
In words: ITC.

The target in assay [6] is T3, Cdc6^(1–48;T7A T39A S43A), only T23 phosphorylated (UniProt P09119 1-48, T7A | T39A | S43A, only T23 phosphorylated).
T3 chain (looked up): T2 chain (looked up) with T7A, A23T
In words: ITC.

For assay [7], the target named is B1. In words: ITC.

Changes are numbered by the printed parent chain. Numbers in names are those of the source. Non-standard residues stand in square brackets, D forms with d. No end group written: not given here. pY = N[C@@H](Cc1ccc(OP(=O)(O)O)cc1)C(=O)O; pT = C[C@@H](OP(=O)(O)O)[C@H](N)C(=O)O; pS = N[C@@H](COP(=O)(O)O)C(=O)O

Sequence of phosSic1ΔC ΔC (Saccharomyces cerevisiae) (P38634 1-215, stated change not applied): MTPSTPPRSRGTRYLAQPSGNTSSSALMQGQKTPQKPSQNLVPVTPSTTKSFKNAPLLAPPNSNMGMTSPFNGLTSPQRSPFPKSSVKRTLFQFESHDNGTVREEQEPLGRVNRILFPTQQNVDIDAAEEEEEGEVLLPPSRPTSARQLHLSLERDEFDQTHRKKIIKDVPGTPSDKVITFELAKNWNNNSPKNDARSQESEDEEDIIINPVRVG
Sequence of phosSic1 N-terminus N-terminus (Saccharomyces cerevisiae) (P38634 1-100): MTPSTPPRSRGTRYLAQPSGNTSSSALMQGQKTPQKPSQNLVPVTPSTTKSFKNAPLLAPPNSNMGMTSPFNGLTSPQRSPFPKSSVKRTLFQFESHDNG

With Cks1 (from UniProt P20486), the Kd (as a rule, the concentration at which binding is half-saturated) was 20 µM in assay [1] and 11 µM in assay [2].

For “S. cerevisiae Cks (Cks1), wild type (from UniProt P20486 1-150) (natural protein)”, in assay [3], the Kd amounted to 9.8 µM and the stoichiometry N (commonly a count of units in the complex or per binding partner) is 2.

Regarding SAIPI[pY]PTK [phosCdc6^2–10; pT7pY], the “Cks1 Kd (µM)” value in assay [4] was “no heat”.

Regarding SAIPI[pS]PTK [phosCdc6^2–10; pT7pS], in assay [4], the “Cks1 Kd (µM)” value is recorded as “no heat”.

For the molecule “phosCdc6^1–48: purified N-terminal domain of Cdc6 (residues 1–48) phosphorylated with recombinant Cdk (MSAIPI[pT]PTKRIRRNLFDDAPA[pT]PPRPLKRKKLQFTDV[pT]PES[pS]PEKLQ)”, the “stoichiometry parameter n (Cks1 molecules per Cdc6 molecule)” value in assay [4] (data fit to a one site model) is recorded as “≈ 2”.

With B1, the “stoichiometry N” value in assay [5] and in assay [6] was roughly 1 each time.

As for TYS[pT]PPRS [phosSic1^(2–9; P3Y)], the affinity in assay [7], expressed as Kd, was 90 ± 50 µM.

ESVT[pT]PIT [phosSwe1^117–124] had a Kd in assay [7] of 170 ± 90 µM.

For SAIPI[pT]PTK [phosCdc6^2–10], binding in assay [7] was put at a Kd of 130 ± 60 µM.

On to TPS[pT]PTRS [phosSic1^(2–9; P7T)], for which the equilibrium dissociation constant (Kd) in assay [7] came to 70 ± 20 µM.

For the molecule TPS[pT]PKRS [phosSic1^(2–9; P7K)], the dissociation constant Kd in assay [7] came to 120 ± 20 µM.

In the case of EEIS[pT]PTR [phosSwe1^369–376], the Kd in assay [7] stood at 160 ± 70 µM.

The molecule RIPE[pT]PVK [phosSwe1^192–199] returned a Kd in assay [7] of 60 ± 10 µM.

As to AIPI[pT]P [phosCdc6^3–8], in assay [7], the dissociation constant (Kd) is 81 ± 6 µM.

In turn, TPS[pT]PPRS [phosSic1^2–9] showed a Kd in assay [7] of 95 ± 8 µM.

AIPI[pT]PT [phosCdc6^3–9] had an equilibrium dissociation constant (Kd) in assay [7] of 61 ± 9 µM.

On to SAIPI[pT]P [phosCdc6^2–8], for which, in assay [7], the Kd is 62 ± 2 µM.
